Data as given in patent US20230346885A1 (published 2023).
Positions count from the first letter of the chain named. Blank lines part the entries; values can stand above or below the binder they belong to.

Key:
Test in all cases: binding, other
[1] = biological target: T1, NR0B1 peptide on HLA (human)
T1 peptide: GLPGGRPVAL

[2] = biological target: T2, NPSR1 peptide on HLA (human)
T2 peptide: VIIQNLPAL

[3] = biological target: T3, NR0B1 peptide on HLA (human)
T3 peptide: GLLKTLRFV

[4] = biological target: T4, MAGEC1 peptide on HLA (human)
T4 peptide: FLAMLKNTV

[5] = biological target: T5, RLN1 peptide on HLA (human)
T5 peptide: FIANLPPELKA

[6] = biological target: T6, PAGE5 peptide on HLA (human)
T6 peptide: TLPTFDPTKV

[7] = biological target: T7, PAEP peptide on HLA (human)
T7 peptide: AMATNNISL

[8] = biological target: T8, PAGE2 peptide on HLA (human)
T8 peptide: IMPTFDLTKV

binding result [1]: recognises
B13: TCR of SEQ ID NOs 455 and 456 (TCR, V domains shown)
Valpha: KQEVTQIPAALSVPEGENLVLNCSFTDSAIYNLQWFRQDPGKGLTSLLLIQSSQREQTSGRLNASLDKSSGRSTLYIAASQPGDSATYLCAVRGYQKVTFGTGTKLQVIP
Vbeta: NAGVTQTPKFQVLKTGQSMTLQCAQDMNHEYMSWYRQDPGMGLRLIHYSVGAGITDQGEVPNGYNVSRSTTEDFPLRLLSAAPSQTSVYFCATSGLNTEAFFGQGTRLTVV

binding result [7]: recognises
B14: TCR of SEQ ID NOs 465 and 466 (TCR, V domains shown)
Valpha: B13 Valpha with G94S, Q96N, K97Q, V98F, T99Y, K105S, Q107T
Vbeta: NAGVTQTPKFQVLKTGQSMTLQCAQDMNHEYMSWYRQDPGMGLRLIHYSVGAGITDQGEVPNGYNVSRSTTEDFPLRLLSAAPSQTSVYFCASSPGGPSTEAFFGQGTRLTVV

binding result [8]: recognises
B15: TCR of SEQ ID NOs 485 and 486 (TCR, V domains shown)
Valpha: KQEVTQIPAALSVPEGENLVLNCSFTDSAIYNLQWFRQDPGKGLTSLLLIQSSQREQTSGRLNASLDKSSGRSTLYIAASQPGDSATYLCAVRLRGSARQLTFGSGTQLTVLP
Vbeta: NAGVTQTPKFRVLKTGQSMTLLCAQDMNHEYMYWYRQDPGMGLRLIHYSVGEGTTAKGEVPDGYNVSRLKKQNFLLGLESAAPSQTSVYFCASSYSIEFTEAFFGQGTRLTVV

binding result [8]: recognises
B16: TCR of SEQ ID NOs 487 and 488 (TCR, V domains shown)
Valpha: B15 Valpha with V92L, R93G, L94Y
Vbeta: NAGVTQTPKFRVLKTGQSMTLLCAQDMNHEYMYWYRQDPGMGLRLIHYSVGEGTTAKGEVPDGYNVSRLNKREFSLRLESAAPSQTSVYFCASSVGYPGELFFGEGSRLTVL

binding result [4]: recognises
B17: TCR of SEQ ID NOs 435 and 436 (TCR, V domains shown)
Valpha: KQEVTQIPAALSVPEGENLVLNCSFTDSAIYNLQWFRQDPGKGLTSLLLIQSSQREQTSGRLNASLDKSSGRSTLYIAASQPGDSATYLCAALSYNTDKLIFGTGTRLQVFP
Vbeta: NAGVTQTPKFRVLKTGQSMTLLCAQDMNHEYMYWYRQDPGMGLRLIHYSVGEGTTAKGEVPDGYNVSRLKKQNFLLGLESAAPSQTSVYFCASKDIPYTEAFFGQGTRLTVV

binding result [5]: recognises
B18: TCR of SEQ ID NOs 519 and 520 (TCR, V domains shown)
Valpha: KQEVTQIPAALSVPEGENLALNCSFTDSAIYNLQWFRQDPGKGLTSLLLIQSSQREQTSGRLNASLDKSSGRSTLYIAASQPGDSATYLCAVNAGGTSYGKLTFGQGTILTVHP
Vbeta: NAGVTQTPKFQVLKTGQSMTLQCAQDMNHNSMYWYRQDPGMGLRLIYYSASEGTTDKGEVPNGYNVSRLNKREFSLRLESAAPSQTSVYFCASSYWREYYEQYFGPGTRLTVT

binding result [2]: recognises
B19: TCR of SEQ ID NOs 445 and 446 (TCR, V domains shown)
Valpha: KQEVTQIPAALSVPEGENLVLNCSFTDSAIYNLQWFRQDPGKGLTSLLLIQSSQREQTSGRLNASLDKSSGRSTLYIAASQPGDSATYLCAVSPVTSYDKVIFGPGTSLSVIP
Vbeta: NAGVTQTPKFRVLKTGQSMTLLCAQDMNHEYMYWYRQDPGMGLRLIYYSASEGTTDKGEVPNGYNVSRLNKREFSLRLESAAPSQTSVYFCASSYSWFGDGTEAFFGQGTRLTVV

binding result [8]: recognises
B20: TCR of SEQ ID NOs 489 and 490 (TCR, V domains shown)
Valpha: B13 Valpha with Y95D, Q96Y, V98L, T99S, T102A, K105T, L106V, Q107T, I109R, P110A
Vbeta: NAGVTQTPKFQVLKTGQSMTLQCAQDMNHNSMYWYRQDPGMGLRLIYYSASEGTTDKGEVPNGYNVSRLNKREFSLRLESAAPSQTSVYFCASSDPLGGLYGYTFGSGTRLTVV

binding result [7]: recognises
B21: TCR of SEQ ID NOs 463 and 464 (TCR, V domains shown)
Valpha: KQEVTQIPAALSVPEGENLVLNCSFTDSAIYNLQWFRQDPGKGLTSLLLIQSSQREQTSGRLNASLDKSSGRSTLYIAASQPGDSATYLCAVQGGSEKLVFGKGTKLTVNP
Vbeta: NAGVTQTPKFQVLKTGQSMTLQCAQDMNHNSMYWYRQDPGMGLRLIYYSASEGTTDKGEVPNGYNVSRLNKREFSLRLESAAPSQTSVYFCASSEEWSYGYTFGSGTRLTVV

binding result [3]: recognises
B22: TCR of SEQ ID NOs 449 and 450 (TCR, V domains shown)
Valpha: KQEVTQIPAALSVPEGENLVLNCSFTDSAIYNLQWFRQDPGKGLTSLLLIQSSQREQTSGRLNASLDKSSGRSTLYIAASQPGDSATYLCAVRPGDSWGKLQFGAGTQVVVTP
Vbeta: B13 Vbeta with R44K, H47Y, Q57K, T93S, G95S, L96P, N97V, T98G, E99T

binding result [7]: recognises
B23: TCR of SEQ ID NOs 461 and 462 (TCR, V domains shown)
Valpha: KQEVTQIPAALSVPEGENLVLNCSFTDSAIYNLQWFRQDPGKGLTSLLLIQSSQREQTSGRLNASLDKSSGRSTLYIAASQPGDSATYLCAVSRSWGKFQFGAGTQVVVTP
Vbeta: NAGVTQTPKFQVLKTGQSMTLQCAQDMNHEYMSWYRQDPGMGLRLIHYSVGAGITDQGEVPNGYNVSRLNKREFSLRLESAAPSQTSVYFCASSLTGGAEYGYTFGSGTRLTVV

The next lines start with the binder.

B1: TCR of SEQ ID NOs 457 and 458 (TCR, V domains shown)
Valpha: B13 Valpha with R93S, Q96S, K97T, V98L, T102K, K105M, Q107L, I109S
Vbeta: NAGVTQTPKFRVLKTGQSMTLLCAQDMNHEYMYWYRQDPGMGLRLIHYSVGEGTTAKGEVPDGYNVSRLKKQNFLLGLESAAPSQTSVYFCASTGGGPPLNTEAFFGQGTRLTVV
binding result [1]: recognises

B2: TCR of SEQ ID NOs 459 and 460 (TCR, V domains shown)
Valpha: B13 Valpha with V92A, R93S, Q96S, K97T, V98L, T102K, K105M, Q107L, I109S
Vbeta: NAGVTQTPKFQVLKTGQSMTLQCAQDMNHEYMSWYRQDPGMGLRLIHYSVGAGITDQGEVPNGYNVSRSTTEDFPLRLLSAAPSQTSVYFCASRLGQFGQAFFGQGTRLTVV
binding result [1]: recognises

B3: TCR of SEQ ID NOs 443 and 444 (TCR, V domains shown)
Valpha: QKEVEQNSGPLSVPEGAIASLNCTYSDRGSQSFFWYRQYSGKSPELIMSIYSNGDKEDGRFTAQLNKASQYVSLLIRDSQPSDSATYLCAVNDSWGKLQFGAGTQVVVTP
Vbeta: DGGITQSPKYLFRKEGQNVTLSCEQNLNHDAMYWYRQDPGQGLRLIYYSQIVNDFQKGDIAEGYSVSREKKESFPLTVTSAQKNPTAFYLCASSMVPGFSEQFFGPGTRLTVL
binding result [2]: recognises

B4: TCR of SEQ ID NOs 447 and 448 (TCR, V domains shown)
Valpha: B3 Valpha with N92S, D93A, S94A, W95G, G96N, Q99T, A102G, Q105R, V107L, T109K
Vbeta: NAGVTQTPKFRILKIGQSMTLQCTQDMNHNYMYWYRQDPGMGLKLIYYSAGAGITDKGEVPNGYNVSRSTTEDFPLRLELAAPSQTSVYFCASSYFGEQYFGPGTRLTVT
binding result [2]: recognises

B5: TCR of SEQ ID NOs 451 and 452 (TCR, V domains shown)
Valpha: KQEVTQIPAALSVPEGENLVLNCSFTDSAIYNLQWFRQDPGKGLTSLLLIQSSQREQTSGRLNASLDKSSGRSTLYIAASQPGDSATYLCAVGTDSWGKFQFGAGTQVVVTP
Vbeta: NAGVTQTPKFQVLKTGQSMTLQCAQDMNHEYMSWYRQDPGMGLRLIHYSVGAGITDQGEVPNGYNVSRSTTEDFPLRLLSAAPSQTSVYFCASSYSVDSPLHFGNGTRLSVL
binding result [3]: recognises

B6: TCR of SEQ ID NOs 453 and 454 (TCR, V domains shown)
Valpha: B5 Valpha
Vbeta: B2 Vbeta with R94S, L95F, G96S, Q97P, F98N, G99T, Q100E
binding result [3]: recognises

B7: TCR of SEQ ID NOs 433 and 434 (TCR, V domains shown)
Valpha: B13 Valpha with R93E, G94S, Y95G, Q96N, K97Q, V98F, T99Y, K105S, Q107T
Vbeta: B14 Vbeta with A52V, P95F, G97Q, P98G, T100S, E101P, A102L, F103H, Q106N, V113T
binding result [4]: recognises

B8: TCR of SEQ ID NOs 517 and 518 (TCR, V domains shown)
Valpha: B13 Valpha with V92P, R93G
Vbeta: B2 Vbeta with L95R, G96D, Q97P, F98L, Q100G, A101Y, F102T, Q105S
binding result [5]: recognises

B9: TCR of SEQ ID NOs 493 and 494 (TCR, V domains shown)
Valpha: B19 Valpha with S93G, P94N, V95S, T96G, S97G, D99Q, I102T, P105T, S108K, S110Q
Vbeta: B14 Vbeta with P95Y, G96S, G97T, P98G, T100Y, A102Q, F103Y, Q106P, V113T
binding result [6]: recognises

B10: TCR of SEQ ID NOs 491 and 492 (TCR, V domains shown)
Valpha: B19 Valpha with P94N, V95S, T96G, S97G, D99Q, I102T, P105T, S108K, S110Q
Vbeta: B14 Vbeta with N62D, P95Y, G96S, G97T, P98G, T100Y, A102Q, F103Y, Q106P, V113T
binding result [6]: recognises

B11: TCR of SEQ ID NOs 515 and 516 (TCR, V domains shown)
Valpha: KQEVTQIPAALSVPEGENLVLNCSFTDSAIYNLQWFRQDPGKGLTSLLLIQSSQREQTSGRLNASLDKSSGRSTLYIAASQPGDSATYLCAVVSNNDMRFGAGTRLTVKP
Vbeta: NAGVTQTPKFQVLKTGQSMTLQCAQDMNHEYMSWYRQDPGMGLRLIHYSVGAGITDQGEVPNGYNVSRSTTEDFPLRLLSAAPSQTSVYFCASSLHSPVQGDYGYTFGSGTRLTVV
binding result [5]: recognises

B12: TCR of SEQ ID NOs 495 and 496 (TCR, V domains shown)
Valpha: B19 Valpha with S93G, P94N, V95S, T96G, S97G, D99Q, I102T, P105T, S108K, S110Q
Vbeta: B14 Vbeta with P95Y, G96S, G97T, P98G, T100Y, E101G, A102Y, F103T, Q106S
binding result [6]: recognises
